Earlier results as cited in article PMC3883350.
Read-outs that look alike come from different tables or passages of the source. One block for each substance: values may come before it.

How the values were obtained:
VIP (Homo sapiens) [1] = molecular target: VIP (Homo sapiens) (UniProt P01282)
PACAP (Homo sapiens) [2] = molecular target: PACAP (Homo sapiens) (UniProt P18509)
PACAP (Homo sapiens) [3] = molecular target: PACAP (Homo sapiens) (UniProt P18509); remark: listed apart in the source
VIP (Homo sapiens) [4] = molecular target: VIP (Homo sapiens) (UniProt P01282); remark: listed apart in the source
PACAP (Homo sapiens) [5] = molecular target: PACAP (Homo sapiens) (UniProt P18509); remark: listed apart in the source
VIP (Homo sapiens) [6] = molecular target: VIP (Homo sapiens) (UniProt P01282); remark: listed apart in the source

UniProt P18509, sequence (P18509 82-129): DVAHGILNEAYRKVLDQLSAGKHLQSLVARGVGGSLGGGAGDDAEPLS
UniProt P01282, sequence (P01282 125-152): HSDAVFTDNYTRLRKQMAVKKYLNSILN

- Kd (VIP (Homo sapiens) [1]): 1 nM
- Kd (PACAP (Homo sapiens) [2]): 1 nM
Substance: VPAC2 (from UniProt P41587)

- Kd (PACAP (Homo sapiens) [3]): 1 nM
- Kd (VIP (Homo sapiens) [4]): 1 nM
Substance: VPAC1 (from UniProt P32241)

- Kd (PACAP (Homo sapiens) [5]): 0.5 nM
- Kd (VIP (Homo sapiens) [6]): > 500 nM
Substance: PAC1 (from UniProt P41586)
